The term Kd denotes the equilibrium constant for the complex coming apart. Low values mean tighter binding, high ones weaker binding.

The values below come from publication doi:10.1101/2024.05.31.596772 (2024).

The assay deals with microtubules (pig (purified from porcine brain)).
Sequence of microtubules (pig (purified from porcine brain)) (chain, as listed by the source, chain 1 of 2): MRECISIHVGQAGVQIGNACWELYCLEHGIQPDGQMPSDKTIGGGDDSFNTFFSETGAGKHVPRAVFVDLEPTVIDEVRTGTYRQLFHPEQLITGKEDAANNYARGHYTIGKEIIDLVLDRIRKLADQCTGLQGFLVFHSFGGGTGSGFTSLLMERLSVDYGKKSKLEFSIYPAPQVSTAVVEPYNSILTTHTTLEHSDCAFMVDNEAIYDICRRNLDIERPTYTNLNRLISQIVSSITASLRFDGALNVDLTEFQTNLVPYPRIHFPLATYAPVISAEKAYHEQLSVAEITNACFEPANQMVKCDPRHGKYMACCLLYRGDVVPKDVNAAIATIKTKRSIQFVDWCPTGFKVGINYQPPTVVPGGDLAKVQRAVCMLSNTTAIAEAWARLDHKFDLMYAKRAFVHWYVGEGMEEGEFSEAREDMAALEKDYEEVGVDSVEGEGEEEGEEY
Sequence of microtubules (pig (purified from porcine brain)) (chain, as listed by the source, chain 2 of 2): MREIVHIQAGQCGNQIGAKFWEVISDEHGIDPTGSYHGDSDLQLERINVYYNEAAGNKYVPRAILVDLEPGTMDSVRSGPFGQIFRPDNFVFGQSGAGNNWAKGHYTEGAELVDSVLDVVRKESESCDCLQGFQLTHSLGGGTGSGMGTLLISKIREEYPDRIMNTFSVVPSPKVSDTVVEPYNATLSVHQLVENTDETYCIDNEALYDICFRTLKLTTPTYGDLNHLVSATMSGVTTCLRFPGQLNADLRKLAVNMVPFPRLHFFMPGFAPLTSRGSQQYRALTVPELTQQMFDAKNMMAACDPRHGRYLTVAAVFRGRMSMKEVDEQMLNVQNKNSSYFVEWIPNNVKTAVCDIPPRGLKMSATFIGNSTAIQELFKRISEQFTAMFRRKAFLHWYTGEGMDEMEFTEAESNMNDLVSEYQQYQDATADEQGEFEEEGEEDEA

B1: GFP-CAMSAP3 CKK (domain or fragment)
chain: GPRLYKEPSAKSNKFIIHNALSHCCLAGKVNEPQKNRILEEIEKSKANHFLILFRDSSCQFRALYTLSGETEELSRLAGYGPRTVTPAMVEGIYKYNSDRKRFTQIPAKTMSMSVDAFTIQGHLWQSKKPTTPKK
In turn, B1 gave a Kd of 2.14 µM.
